Test results taken from publication PMC11021511 (Nature Communications, 2024).

Tests used:
Experiment in all cases: affinity purification with mass spectrometry; ESK1 antibody cross-linked to Protein A/G beads as bait; lysate of primary human liver tissue (0.5% IGEPAL 630, 50 mM Tris pH 8.0, 150 mM NaCl), at least 5 h at 4 °C; washes with 150 mM NaCl, 450 mM NaCl and no salt; peptides eluted with 10% acetic acid, 5 kDa filter, LC-MS2; enrichment against the MAGE-A4 antibody as control; triplicates
Conditions in all cases: one partner purified
[1] = biological target: T1, HLA-A*02:01 in complex with peptide MAF_(116-124) (…) (Homo sapiens, HLA-A*02:01)
T1 construct: HLA class I heavy chain, allele HLA-A*02:01, human; beta-2-microglobulin, human; The presenting allele is assigned by NetMHCpan 4.1 prediction (rank <= 2); source: peptide pulsed on T2 cells (JNFAT assay); copies: + +

[2] = biological target: T2, HLA-A*02:01 in complex with peptide RBM4B_(59-67) (…) (Homo sapiens, HLA-A*02:01)
T2 construct: HLA class I heavy chain, allele HLA-A*02:01, human; beta-2-microglobulin, human; The presenting allele is assigned by NetMHCpan 4.1 prediction (rank <= 2); also called RMB4B_(59-67); source: peptide pulsed on T2 cells (JNFAT assay); copies: + +

[3] = biological target: T3, HLA-A*02:01 in complex with peptide CYP2C8_(59-67) (…) (Homo sapiens, HLA-A*02:01)
T3 construct: HLA class I heavy chain, allele HLA-A*02:01, human; beta-2-microglobulin, human; Cytochrome P450 2C8, human, residues 59-67; The presenting allele is assigned by NetMHCpan 4.1 prediction (rank <= 2); source: peptide pulsed on T2 cells (JNFAT assay); copies: + +

[4] = biological target: T4, HLA-A*02:01 in complex with peptide HNRNPA1_(15-23) (…) (Homo sapiens, HLA-A*02:01)
T4 construct: HLA class I heavy chain, allele HLA-A*02:01, human; beta-2-microglobulin, human; Heterogeneous nuclear ribonucleoprotein A1, human, residues 15-23; The presenting allele is assigned by NetMHCpan 4.1 prediction (rank <= 2; printed rank 1.625); source: peptide pulsed on T2 cells (JNFAT assay); copies: + +

[5] = biological target: T5, HLA-A*02:01 in complex with peptide USP9Y_(1674-1682) (…) (Homo sapiens, HLA-A*02:01)
T5 construct: HLA class I heavy chain, allele HLA-A*02:01, human; beta-2-microglobulin, human; The presenting allele is assigned by NetMHCpan 4.1 prediction (rank <= 2); source: peptide pulsed on T2 cells (JNFAT assay); copies: + +

[6] = biological target: T6, HLA-A*02:01 in complex with peptide MSMO1_(164-172) (…) (Homo sapiens, HLA-A*02:01)
T6 construct: HLA class I heavy chain, allele HLA-A*02:01, human; beta-2-microglobulin, human; The presenting allele is assigned by NetMHCpan 4.1 prediction (rank <= 2); source: peptide pulsed on T2 cells (JNFAT assay); copies: + +

[7] = biological target: T7, HLA-A*02:01 in complex with peptide ALDOA_(216-224) (…) (Homo sapiens, HLA-A*02:01)
T7 construct: HLA class I heavy chain, allele HLA-A*02:01, human; beta-2-microglobulin, human; The presenting allele is assigned by NetMHCpan 4.1 prediction (rank <= 2); source: peptide pulsed on T2 cells (JNFAT assay); copies: + +

[8] = biological target: T8, HLA-A*02:01 in complex with peptide PLG_(92-100) (…) (Homo sapiens, HLA-A*02:01)
T8 construct: HLA class I heavy chain, allele HLA-A*02:01, human; beta-2-microglobulin, human; Plasminogen, human, residues 92-100; The presenting allele is assigned by NetMHCpan 4.1 prediction (rank <= 2); source: peptide pulsed on T2 cells (JNFAT assay); copies: + +

[9] = biological target: T9, HLA-A*02:01 in complex with peptide SF3B4_(78-86) (…) (Homo sapiens, HLA-A*02:01)
T9 construct: HLA class I heavy chain, allele HLA-A*02:01, human; beta-2-microglobulin, human; Splicing factor 3B subunit 4, human, residues 78-86; The presenting allele is assigned by NetMHCpan 4.1 prediction (rank <= 2); source: peptide pulsed on T2 cells (JNFAT assay); copies: + +

[10] = biological target: T10, HLA-A*02:01 in complex with peptide RL5_(117-125) (…) (Homo sapiens, HLA-A*02:01)
T10 construct: HLA class I heavy chain, allele HLA-A*02:01, human; beta-2-microglobulin, human; The presenting allele is assigned by NetMHCpan 4.1 prediction (rank <= 2); source: peptide pulsed on T2 cells (JNFAT assay); copies: + +

[11] = biological target: T11, HLA-A*02:01 in complex with peptide SET_(150-158) (…) (Homo sapiens, HLA-A*02:01)
T11 construct: HLA class I heavy chain, allele HLA-A*02:01, human; beta-2-microglobulin, human; The presenting allele is assigned by NetMHCpan 4.1 prediction (rank <= 2); source: peptide pulsed on T2 cells (JNFAT assay); copies: + +

[12] = biological target: T12, HLA-A*02:01 in complex with peptide ILF2_(127-135) (…) (Homo sapiens, HLA-A*02:01)
T12 construct: HLA class I heavy chain, allele HLA-A*02:01, human; beta-2-microglobulin, human; The presenting allele is assigned by NetMHCpan 4.1 prediction (rank <= 2); source: peptide pulsed on T2 cells (JNFAT assay); copies: + +

[13] = biological target: T13, HLA-A*02:01 in complex with peptide CRYL1_(130-138) (…) (Homo sapiens, HLA-A*02:01)
T13 construct: HLA class I heavy chain, allele HLA-A*02:01, human; beta-2-microglobulin, human; The presenting allele is assigned by NetMHCpan 4.1 prediction (rank <= 2); source: peptide pulsed on T2 cells (JNFAT assay); copies: + +

[14] = biological target: T14, HLA-A*02:01 in complex with peptide SHC1_(469-477) (…) (Homo sapiens, HLA-A*02:01)
T14 construct: HLA class I heavy chain, allele HLA-A*02:01, human; beta-2-microglobulin, human; The presenting allele is assigned by NetMHCpan 4.1 prediction (rank <= 2); source: peptide pulsed on T2 cells (JNFAT assay); copies: + +

[15] = biological target: T15, HLA-A*02:01 in complex with peptide ARHGEF26_(863-871) (…) (Homo sapiens, HLA-A*02:01)
T15 construct: HLA class I heavy chain, allele HLA-A*02:01, human; beta-2-microglobulin, human; The presenting allele is assigned by NetMHCpan 4.1 prediction (rank <= 2); source: peptide pulsed on T2 cells (JNFAT assay); copies: + +

binding result [1]: binds
binding result [2]: binds
binding result [3]: binds
binding result [4]: binds
binding result [5]: binds
binding result [6]: binds
binding result [7]: binds
binding result [8]: binds
binding result [9]: binds
binding result [10]: binds
binding result [11]: binds
binding result [12]: binds
binding result [13]: binds
binding result [14]: binds
binding result [15]: binds
B1: ESK1 antibody (antibody, V domains shown)
VH: QMQLVQSGAEVKEPGESLRISCKGSGYSFTNFWISWVRQMPGKGLEWMGRVDPGYSYSTYSPSFQGHVTISADKSTSTAYLQWNSLKASDTAMYYCARVQYSGYYDWFDPWGQGTLVTVSS
VL: not shown
notes: the constant region of the bait antibody is not described for ESK1
